From the DeepSol protein solubility set

assay: soluble on expression in E. coli; label from the status in PepcDB or PDB records

Sequence | soluble on expression in E. coli
MAQSKLYPVVMAGGSGSRLWPLSRVLYPKQFLCLKGDLTMLQTTICRLNGVECESPVVICNEQHRFIVAEQLRQLNKLTENIILEPAGRNTAPAIALAALAAKRHSPENDPLMLVLAADHVIADEDAFRAAVRNAMPYAEAGKLVTFGIVPDLPETGYGYIRRGEVSAGEQDTVAFEVAQFVEKPNLETAQAYVASGEYYWNSGMFLFRAGRYLEELKKYRPDILDACEKAMSAVDPDLDFIRVDEEAFLACPEESVDYAVMERTADAVVVPMDAGWSDVGSWSSLWEISAHTAEGNVCHGDVINHKTENSYVYAESGLVTTVGVKDLVVVQTKDAVLIADRNAVQDVKKVVEQIKADGRHEHRVHREVYRPWGKYDSIDAGDRYQVKRITVKPGEGLSVQMHHHRAEHWVVVAGTAKVTIDGDIKLLGENESIYIPLGATHCLENPGKIPLDLIEVRSGSYLEEDDVVRFADRYGRV | soluble
MNLEPPKAEIRSATRVMGGPVTPRKGPPKFKQRQTRQFKSKPPKKGVQGFGDDIPGMEGLGTDITVICPWEAFNHLELHELAQYGII | soluble
MQKLILSALFVALVAADCNMRCPDGYMSFKRTPTPKNSMTGMAILSDTLISPNQAKKVCEKDGSILTSFENFDERTKLSTVLRDFLTAKKLDRGSMIVDGHRLKNCETTDKTVLATVECRNSSSGFTTDEKHTDNTFMWKSWSATEPGQTIFEKSIESCLQLSISQFPARSELINDVFCNYVKHPENEGASDLWNYGAVCGRFPEWI | not soluble
MKAFEFLYEDFQRGLTVVLDKGLPPKFVEDYLKVCGDYIDFVKFGWGTSAVIDRDVVKEKINYYKDWGIKVYPGGTLFEYAYSKGKFDEFLNECEKLGFEAVEISDGSSDISLEERNNAIKRAKDNGFMVLTEVGKKMPDKDKQLTIDDRIKLINFDLDAGADYVIIEGRESGKGKGLFDKEGKVKENELDVLAKNVDINKVIFEAPQKSQQVAFILKFGSSVNLANIAFDEVISLETLRRGLRGDTFGKV | soluble
MVPSTFSRLKAARCLPVVLAALIFVGCGTHTPDQSTAYMQGTAQADSAFYLQQMQQSSDDTRINWQLLAIRALVKEGKTGQAVELFNQLPQELNDSQRREKTLLAVEIKLAQKDFAGAQNLLAKITPADLEQNQQARYWQAKIDASQGRPSIDLLRALIAQEPLLGAKEKQQNIDATWQALSSMTQEQANTLVINADENILQGWLDLQRVWFDNRNDPDMMKAGIADWQKRYPNNPGAKMLPTQLVNVKAFKPASTNKIALLLPLNGQAAVFGRTIQQGFEAAKNIGTQPVAAQVAAAPAADVAEQPQPQTADGVASPAQASVSDLTGDQPAAQPVPVSAPATSTAAVSAPANPSAELKIYDTSSQPLSQILSQVQQDGASIVVGPLLKNNVEELLKSNTPLNVLALNQPENIENRVNICYFALSPEDEARDAARHIRDQGKQAPLVLIPRSSLGDRVANAFAQEWQKLGGGTVLQQKFGSTSELRAGVNGGSGIALTGTPITPRATTDSGMTTNNPTLQTTPTDDQFTNNGGRVDAVYIVATPGEIAFIKPMIAMRNGSQSGATLYASSRSAQGTAGPDFRLEMEGLQYSEIPMLAGGNLPLMQQALSAVNNDYSLARMYAMGVDAWSLANHFSQMRQVQGFEINGNTGSLTANPDCVINRKLSWLQYQQGQVVPAS | soluble
MAHHHHHHSGTVTDDYLANNVDYASGFKGPLPMPPSKHIAIVACMDARLDVYRMLGIKEGEAHVIRNAGCVVTDDVIRSLAISQRLLGTREIILLHHTDCGMLTFTDDDFKRAIQDETGIRPTWSPESYPDAVEDVRQSLRRIEVNPFVTKHTSLRGFVFDVATGKLNEVTP | soluble
MDKTKLYPEAPLTSSQWGELDELVIETARRQLVGRRFIDLYGPLGEGVQSVANDIYMNPEQGDMSFHGKELSLSEPARRVHLTIPLLYKDFILYWRDIEQAKQLGSPIDFSAAANAAQQCALLEDDLIFNGSTEFDVPGIMNVKGKIAHIRSDWMKSGNAFTDVVEARNKLLQLGHTGPYALVLSPELYALIHRVHEGTHVLEIEHIRELMTAGIYQTPVIKGKRGVVIDTGRQNIDLAVAADMQTAFLDTENMNYLFRVYESVVPRIKRPSAICTLEDPNESA | not soluble
MSKCPTVRARAIDCKQGAVRAVRYNVDGNYCVTCGSDKTVKLWNPLKSSLLKTYSGTGNEVLDAASSSDNSQIAAGGADRACTVFDVETGKQLRRWRTHGAQVNAVAFNEESSVVFSGSMDCTMQAFDCRSRSEKPIQIFNESTDGILSIDVNGHEIVAGSADGNYRVYSIRDGNMTVDYMGDSVNSVSFTPDSNCLLAGVMGGIVRLIDKSSGKLLASYKGHQNTEYKLDCRVLQSIEHVASGSEDGFVYVYSLLDSHIVSKLEHPSKVIHSLTAHPKKERLMTAAGQMIYLWVAEDDAEVLGE | not soluble
MQVLNTKSETKQENETMQPPYIQERLKSLNDIETQLCSMLQEASQVTFIFGELKRGNESVKPQFENHVKQFYERLDKSTTQLRKEIQLLDENVGTRLLPINVNKKALGQDTEKMEEQLDLLSAILDPSKSK | soluble
MSLRQFWFTMVKVDGTSMQPNLQNNERVVAFKTSKIKAGSVVVFNAYGLDPNQTDKNAVYVKRVIGMPGDTVRYTSSGKLYVNNKLVKQTYLKNKYQQTTGSFMANSHSKFTGWTLNSLSHDQGWAKSVTNNTVPKGYYFVLGDHRSVSNDGRYWGLVPKSKMIGVVKAWPWQNRKQYINNYQEGHHHHHH | soluble
MKKLFFIMAMSVCAFTAQAQTTSGIRVGLNMTSATGKYNDLMADQDYNNKSYMGYSIHYFIDVPVIGNFSIQPAVGLSMKGITYEYDKFTTKKSHRLDLDSYKKYDVTESRGTSVTQKHNLGYLDVPILFAYALPLSESFRVQLGVGPYFSYGLFGKFKYESDKYLTVSPDKYGENKHTITKDDYPSFGKNDDADDPKGNINRFDWGIAVQGSIYWKRLFLNVAYQKGLKSANITDEKNEGKDKLALSNLSLGLGFIF | not soluble
MSLKWIDSHIHVDQYKDEEKSKLLKDVEHSKEIKGLIAVSMNYQSSKETVSLAKRYPFVHPAIGFHPEQPIHKEECEKIYKLIEEHVEDIVAIGEVGLPYYLRKEDKRIAVNSYISVLQRFVELASKYDLPIILHAVYEDADIVCDLLEKYKVSRAHFHWFKGSETTMKRMMRNGYYISITPDVLHKEKIRKIVSYYPLEYMMVETDGPWEFQDDVMTHPGMIREVLKEISVIKNMSVDKVMKTIYENTIQFYPTLTGNKTPTSKFDEGHHHHHH | not soluble
MSLGKLLFVDIGGTLLDYSNEVPRSAVDAIRKARAKGHRVYLSSGRSSAEVTSQLWDIGVDGLIGANGGYVESAQESVFHRRLSGEETRHIVEWLYNRGLEFYLESNNGLYASRGFREASKPVLSRLSEKTDVTVDSMYPDMFWGASLDRDDVNKISYIFNSQEDLDAAREAFPNLEHTTWGGQTGALFGTIGVSVNKKIGVDRLLKYLNADRANTIAFGDSDEDLSLFEASAYGVAMGEATESLKAAADLVTDAVGQDGLRNAFLKLELIDAEGHHHHHH | soluble
MSLARVSGDAPAVSWETLDLHTAQPFGIARWTHSVYPRTFVTLTLDGRRGRGEAAPNAFYGETRGTVEAVLPLLAPALSDPWDWDGLHAALGARMPHDHPSVKCALEMAAVEWCAQAAGVPVWQLLGLSPTVLPESSYTVSLAPLPDMRRQAREAVGRGHRVLKVKLGTDQDEAILEALREEVPEVALRVDANAAWTRAQAKRMLGVLDAARVEFVEQPLAAGDLEGHAMLRGVSPVPIVADESLHHVGDVLALARAFDGVNLKLAKLGGPLQALRALRLARAHGMQVMMGCMIESSLGIAAAAHLAGLCDWADLDGALLLADDPYTGLDWTAGQLARPGGTGWGVTRRSEGHHHHHH | soluble
MNLNTPVEIPSGFTPISHAQQLLIMGSCFAENIGTLLAENKFRIDINPFGILYNPRSISMALREIISQKQYKASDLFLHRECWHSPMHHGSFSAATLADTLRNIQSRVEQAHKELKQLDRLMLTFGTAYVYEQKETGKVVANCHKLPEKNFIRRRLEIDEIVEDYTLLLDELISLNPQLKILFTVSPIRHIRDGMHANQLSKSVLLLAIDRLMQRYPQVTCYFPSYEIVLDELRDYRFYADDMVHPSTLTVNYLWERFSETFFTPETQSLIKECET | soluble
MGSDKIHHHHHHMTEQFNINQFNCSISGKGQTLIWAHGSTGCIQSEDAIGLYAWHRFPKKLQLIRYDAVGHGLSSAGKCVEDYLWPELANDMISVATHCKATSELILGGQSMGSATSLYAALKHPGMVKGLILMNPPNAWHSRAAQVDEYHKMAKAARIFGGKGLAKISAKHWDKLLPNWLINGHEHSVLGMLDGLKQMTSQTLDQLFRAAALNDLPNKQLLSGLTMPTLILAWHGDKTHPVETAIELHQTLPNSTLHIADSVDEVNEWPELISEFCFRL | not soluble
MAHHHHHHMHRSLLRCALPGEPMLESYRSGVLRCLRCHLGAMRPDFPVGSAATEVAALASTATTPLTCSRRAFRQQGAAHPNTPDATEAAELEKDWQALKTYGMIGGFALLCVATLWYGSRQAKQRYFGAEGSARVSVETRGRPALGGPFVLVNTKGEPVSQAEFLGSWAFFYFGFTHCPEICPVELNRMSHVVDAVRAARPQERIAPLFVSCDPRRDSLEAIDEYLSVFHPDFIGLVGTPKQVNDACRSYRIYYSIPTDEDAAQEDYLIDHSIAIFLFDPQGRFVDFFGNRYDEREITEKVLHYMSEYAKDPTWTNW | not soluble
MLVKDFMTRNPITIAPETSFSEALKLMKQNKIKRLIVMKNEKIVGIVTEKDLLYASPSKATTLNIWELHYLLSKLKIEEIMTKDVVTVNENTPIEDAARIMEEKDISGLPVVDDAGRLVGIITQTDIFKVFVEIFGTKREGTIRYTMEMPDKPGELLEVAKRIYEAGGNIISIATLFEEGKDSYLATLRVENIDHEKFVKSLDEIDVKLLYYHSN | soluble
KLKPYNSEKILKYAEEVKSLYEKQSEENQEAYLQSIAKLGYEIYIVDDQKNGKRIGNAFRKTSISDDTVHKVLQGETFNGVSTYPTRLFITGFFDNELINSVGVPVKHGDKQYALFIRPDIQNQFGEMR | not soluble
MSLNSNTEKRIALISVHGDPAIEIGKEEAGGQNVYVREVGKALAQLGWQVDMFSRKVSPEQELIVHHSPLCRTIRLTAGPEEFVPRDNGFKYLPEFVQQLLRFQKENNVNYPLVHTNYWLSSWVGMQLKAIQGSKQVHTYHSLGAVKYKSIDTIPLVATKRLSVEKQVLETAERIVATSPQEQQHMRSLVSTKGYIDIVPCGTDIHRFGSIARQAARAELGIDQEAKVVLYVGRFDQRKGIETLVRAMNESQLRDTNKLKLIIGGGSTPGNSDGRERDRIEAIVQELGMTEMTSFPGRLSQDVLPAYYAAADVCVVPSHYEPFGLVAIEAMASGTPVVASDVGGLQFTVVSEKTGLLVPPKDIAAFNIAIDRILMNPQWRDELGLAARKHVTHKFGWEGVASQLDGIYTQLLTQQVKEPALVTKEGHHHHHH | soluble
AKVIFVLAMDVSGKIASSVESWSSFEDRKNFRKITTEIGNVVMGRITFEEIGRPLPERLNVVLTRRPKTSNNPSLVFFNGSPADVVKFLEGKGYERVAVIGGKTVFTEFLREKLVDELFVTVEPYVFGKGIPFFDEFEGYFPLKLLEMRRLNERGTLFLKYSVEKSHR | soluble
MRNITNFLKTFLLWELLKGLKVTGKHFFTRKVTVQYPDEKTPISNRFRGLHALRRYENGEERCIACKLCEVVCPALAITINSTEREDGTRRTSSYEMDLFKCIFCGYCEESCPVDSIVETNILEYHFEERGENIMTKAKLLAIGDKYEAQIAADRLQDKDFR | not soluble
